These results are taken from patent publication US20040253234A1 (Kyowa Kirin, published 2004).

Residue numbers refer to the chain shown, from its start.

The target of test [1] is T1, C-terminus-biotin labeled compound 1 (an N-terminus peptide of FGF-8; SEQ ID NO:15) (human, C-terminus-biotin labeled).
T1 construct: also called FGF-8 peptide
T1 peptide: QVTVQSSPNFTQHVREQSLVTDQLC
The test can be described thus: BIAcore 2000, C-terminus-biotin labeled FGF-8 peptide on SA chip, antibody as analyte, RU compared. The procedure:
In order to examine the activity of various anti-FGF-8 CDR-grafted antibodies obtained in the item 5 of Example 3 to bind to FGF-8 in more detail, activities of various anti-FGF-8 CDR-grafted antibodies to bind to FGF-8 were measured and compared as follows by using BIAcore 2000 (manufactured by BIACORE). The CHO/DG44-derived anti-FGF-8 chimeric antibody KM3034 obtained in the item 3(1) of Example 1 was used as a positive control.
Hereinbelow, HBS-EP (manufactured by Pharmacia) was used as the buffer solution for dilution of samples and during the measurement. First, a sensor tip SA (manufactured by BIACORE) was set, and 5 μl of a C-terminus-biotin labeled compound 1 (an N-terminus peptide of FGF-8; SEQ ID NO:15) prepared to a solution of 0.05 μg/ml was added thereto at a flow rate of 20μl/minute. Thereafter, the tip surface was washed by adding 5 μl of 10 mmol/l Glycine-HCl buffer (pH 1.5) continuously twice. Immobilized amount of the FGF-8 peptide was 35 RU.
To the FGF-8 peptide immobilized flow cell, 60 μl of each antibody solution was added at a flow rate of 20 μl/minute, and then the dissociation reaction was monitored for 3 minutes. After the dissociation reaction, the tip surface was regenerated by adding 20 μl of 10 mmol/l Glycine-HCl buffer (pH 1.5) continuously twice. This cycle was carried out for antibody solutions of various concentrations (50 to 1.85 μg/ml), and a sensorgram at each concentration was obtained. The sensorgram of each antibody was made into a sensorgram of specific reaction by subtracting a sensorgram obtained using a chimeric antibody KM871 for GD3 [Cancer Immunol. Immunother., 36, 373 (1993)] as a negative control.
A general note: Surface plasmon resonance follows binding to a sensor surface in real time, without labels.

Test [2] concerns the target T2, BSA-compound 1 conjugate (human FGF-8 peptide Compound 1, SEQ ID NO:15, conjugated to bovine serum albumin) (human, conjugated to bovine serum albumin through SMCC).
T2 construct: The BSA carrier is not written as a chain
T2 peptide: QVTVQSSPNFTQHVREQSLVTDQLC
The test can be described thus: ELISA, plate-coated BSA-compound 1 conjugate, anti-human IgG-peroxidase detection; positive control. On the procedure:
The conjugate prepared in the above was dispensed at 50 μl/well into a 96 well plate for ELISA (manufactured by Greiner) at a concentration of 0.5 to 1.0 μg/ml and allowed to stand for adsorption overnight at 4° C. After washing with PBS, 1% BSA-containing PBS (BSA-PBS) was added at 100 μl/well and allowed for blocking of remaining active groups to react at room temperature for 1 hour. After washing each well with 0.05% Tween-containing PBS (Tween-PBS), culture supernatants of transformants or purified antibodies were added at 50 μl/well and allowed to react at room temperature for 1 hour. After the reaction, each well was washed with Tween-PBS and then a peroxidase-labeled goat anti-human IgG (H & L) antibody solution (manufactured by American Qualex) diluted 3,000 to 6,000-folds with BSA-PBS was added as a secondary antibody solution at 50 μl/well and allowed to react at room temperature for 1 hour. […] Thereafter, absorbance at 415 nm (OD415) was measured.
The activity of various anti-FGF-8 CDR-grafted antibodies obtained in the item 4 of Example 2 to bind to FGF-8 was measured by the ELISA described in the item 2(6) of Example 1. […]
(In general: ELISA stands for enzyme-linked immunosorbent assay.)

In test [3] the target is T2, BSA-compound 1 conjugate (human FGF-8 …). The test can be described thus: ELISA, plate-coated BSA-compound 1 conjugate, anti-human IgG-peroxidase detection. The procedure: The conjugate prepared in the above was dispensed at 50 μl/well into a 96 well plate for ELISA (manufactured by Greiner) at a concentration of 0.5 to 1.0 μg/ml and allowed to stand for adsorption overnight at 4° C. After washing with PBS, 1% BSA-containing PBS (BSA-PBS) was added at 100 μl/well and allowed for blocking of remaining active groups to react at room temperature for 1 hour. After washing each well with 0.05% Tween-containing PBS (Tween-PBS), culture supernatants of transformants or purified antibodies were added at 50 μl/well and allowed to react at room temperature for 1 hour. After the reaction, each well was washed with Tween-PBS and then a peroxidase-labeled goat anti-human IgG (H & L) antibody solution (manufactured by American Qualex) diluted 3,000 to 6,000-folds with BSA-PBS was added as a secondary antibody solution at 50 μl/well and allowed to react at room temperature for 1 hour. After the reaction and subsequent washing with Tween-PBS, an ABTS substrate solution [a solution prepared by dissolving 0.55 g of 2,2′-azinobis(3-ethylbenzothiazoline-6-sulfonic acid) ammonium in 1 L of 0.1 M citrate buffer (pH 4.2) and adding 1 μl/ml hydrogen peroxide just before use] was added at 50 μl/well for color development, and the reaction was stopped by adding 5% SDS solution at 50 µl/well. Thereafter, absorbance at 415 nm (OD415) was measured.
The activity of various anti-FGF-8 CDR-grafted antibodies obtained in the item 4 of Example 2 to bind to FGF-8 was measured by the ELISA described in the item 2(6) of Example 1. The YB2/0-derived anti-FGF-8 chimeric antibody KM3334 obtained in the item 3(2) of Example 1 was used as a positive control.

Test [4] deals with T3, FGF-8 (manufactured by R&D) (UniProt P55075-3 23-215, limits assumed).
T3 sequence (looked up): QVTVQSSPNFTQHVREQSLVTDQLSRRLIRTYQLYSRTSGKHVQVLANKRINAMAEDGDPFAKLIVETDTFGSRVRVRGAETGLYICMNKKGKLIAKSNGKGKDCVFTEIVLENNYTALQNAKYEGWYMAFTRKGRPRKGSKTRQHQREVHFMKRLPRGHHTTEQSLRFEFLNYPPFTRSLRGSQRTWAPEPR
The test can be described thus: cell-based or functional assay.

B1: anti-FGF-8 CDR-grafted antibody HV0LV3-1/CHO (antibody, V domains shown)
VH: QVQLVQSGAEVKKPGASVKVSCKASGYTFTDYYLNWVRQAPGQGLEWMGEIDPGSDSIYYNENLEGRVTITADTSTSTAYMELSSLRSEDTAVYYCARYGYSRYDVRFVYWGQGTLVTVSS
VL: DVVMTQSPLSLPVTPGEPASISCRSSQSLVHSNGRTYLEWYLQKPGQSPQVLIYKVSNRISGVPDRFSGSGSGTDFTLKISRVEAEDVGVYFCFQGSHVPYTFGQGTKVEIK
notes: CHO/DG44-derived; also called KM8036
As to B1, in test [1], the binding result is “binds”.

B2: anti-FGF-8 chimeric antibody KM3334 (antibody, V domains shown)
VH: QVQLQQSGAEVARPGASVKLSCKASGYTFTDYYLNWVKQRSGQGLEWIGEIDPGSDSIYYNENLEGRATLTADKSSSTAYMQLNSLTSEDSAVYFCARYGYSRYDVRFVYWGQGTLVTVST
VL: B1 VL with V3L, S7T, T14S, P15L, E17D, P18Q, Q50K, V88L, Q105G, V109L
notes: Same expression vector pKANTEX1334 as KM3034 (human gamma1 / kappa constant regions), expressed in YB2/0 cells; also called KiM3334; YB2/0-derived anti-FGF-8 chimeric antibody
As to B2, the binding result in test [2] was “binds”.

B3: anti-FGF-8 chimeric antibody KM3034 (antibody, V domains shown)
VH: B2 VH
VL: B1 VL with V3L, S7T, T14S, P15L, E17D, P18Q, Q50K, V88L, Q105G, V109L
notes: Human chimeric antibody with human gamma1 CH and human kappa CL (vector pKANTEX1334, from pKANTEX93), expressed in CHO/DG44 cells; also called CHO/DG44-derived anti-FGF-8 chimeric antibody
Regarding B3, the binding result in test [1] is recorded as “binds”.

B4: anti-FGF-8 CDR-grafted antibody HV0LV6 (antibody, V domains shown)
VH: B1 VH
VL: B1 VL with T14S, P15L, Q50K
notes: YB2/0-derived, vector pKANTEX1334HV0LV6 (from pKANTEX93, human constant regions); also called KM8037
Consider B4, for which the binding result in test [3] is “binds”.

B5: anti-FGF-8 CDR-grafted antibody HV0LV0/CHO (antibody, V domains shown)
VH: B1 VH
VL: B1 VL with V2I, V51L, F92Y
notes: CHO/DG44-derived, vector pKANTEX1334HV0LV0
B5: the binding result in test [1] was “binds”.

B6: anti-FGF-8 CDR-grafted antibody HV0LV3-3/CHO (antibody, V domains shown)
VH: B1 VH
VL: B1 VL with V2I, T14S, P15L, F92Y
Consider B6, for which the “FGF-8 neutralization activity (FGF-8-dependent growth of SC-3 cells)” value in test [4] is ~0.5 fold of the activity of KM3034.

B7: anti-FGF-8 CDR-grafted antibody HV0LV0 (antibody, V domains shown)
VH: B1 VH
VL: B1 VL with V2I, V51L, F92Y
notes: YB2/0-derived, vector pKANTEX1334HV0LV0 (from pKANTEX93, human constant regions)
As to B7, the binding result in test [3] was “binds”.

B8: anti-FGF-8 CDR-grafted antibody HV0LV4-3/CHO (antibody, V domains shown)
VH: B1 VH
VL: B1 VL with V2I, T14S, P15L
notes: CHO/DG44-derived; also called KM8035
Consider B8, for which the “FGF-8 neutralization activity (FGF-8-dependent growth of SC-3 cells)” value in test [4] was ~0.5 fold of the activity of KM3034. Besides, the binding result in test [1] is “binds”.

B9: anti-FGF-8 CDR-grafted antibody HV6LV6 (antibody, V domains shown)
VH: B1 VH with K12A, K13R, A40R, P41S, M48I, Y95F
VL: B1 VL with T14S, P15L, Q50K
notes: YB2/0-derived, vector pKANTEX1334HV6LV6 (from pKANTEX93, human constant regions)
Take B9: the binding result in test [3] is given as “binds”.

B10: anti-FGF-8 CDR-grafted antibody HV0LV6/CHO (antibody, V domains shown)
VH: B1 VH
VL: B1 VL with T14S, P15L, Q50K
notes: CHO/DG44-derived, vector pKANTEX1334HV0LV6; also called KM8034
On to B10, for which the binding result in test [1] is “binds”.
